Results as given in paper PMC5030251, “Metal-Induced Stabilization and Activation of Plasmid Replication Initiator RepB” (Frontiers in Molecular Biosciences, 2016).

Molecular target: the molecule itself
Assay: AUC; sedimentation equilibrium; RepB6 samples heated to temperatures from 25°C up to 45°C (end of the first thermal transition)

B1: RepB, replication initiator protein of the streptococcal plasmid pMV158 (enzyme, UniProt P13921 1-210, looked up)
chain: MAKEKARYFTFLLYPESIPSDWELKLETLGVPMAISPLHDKDKSSIKGQKYKKAHYHVLYIAKNPVTADSVRKKIKLLLGEKSLAMVQVVLNVENMYLYLTHESKDAIAKKKHVYDKADIKLINNFDIDRYVTLDVEEKTELFNVVVSLIRAYTLQNIFDLYDFIDENGETYGLTINLVNEVIAGKTGFMKLLFDGAYQRSKRGTKNEER
notes: RepB, replication initiator (Rep) protein encoded by plasmid pMV158; 210 amino acid polypeptide purified as a hexamer; In assay a2 the protein had been heated beyond its first, irreversible thermal transition (OBD denatured); also called RepB6; full-length hexameric RepB; source: purified as described previously (Ruiz-Masó et al., 2004; Boer et al., 2009)
With B1 as the protein, how does the “stoichiometry N” value read?
Its value is about 6.
